# In patent publication US9265845B2, “Imaging methods using engineered integrin binding peptides” (The Board of Trustees of the Leland Stanford Junior …, priority 2006, dated 2016):
# Where two headings read alike, the source gives them in different places. Positions of bridges follow the written chain, without caps; N, C: chain ends. Residues, ends and D or L forms follow the SMILES beside them. *: point of attachment. DOTA = O=C(O)CN1CCN(CC(=O)O)CCN(CC(=O)*)CCN(CC(=O)O)CC1
# What was measured:
# [1] = molecular target: αvβ3 integrin (Homo sapiens, UniProt P05106+P06756); test: Yeast-displayed peptide binding to soluble αvβ3 integrin, flow cytometry; conditions: yeast-displayed peptides
# αvβ3 integrin, sequence (P06756 31-889 limits assumed): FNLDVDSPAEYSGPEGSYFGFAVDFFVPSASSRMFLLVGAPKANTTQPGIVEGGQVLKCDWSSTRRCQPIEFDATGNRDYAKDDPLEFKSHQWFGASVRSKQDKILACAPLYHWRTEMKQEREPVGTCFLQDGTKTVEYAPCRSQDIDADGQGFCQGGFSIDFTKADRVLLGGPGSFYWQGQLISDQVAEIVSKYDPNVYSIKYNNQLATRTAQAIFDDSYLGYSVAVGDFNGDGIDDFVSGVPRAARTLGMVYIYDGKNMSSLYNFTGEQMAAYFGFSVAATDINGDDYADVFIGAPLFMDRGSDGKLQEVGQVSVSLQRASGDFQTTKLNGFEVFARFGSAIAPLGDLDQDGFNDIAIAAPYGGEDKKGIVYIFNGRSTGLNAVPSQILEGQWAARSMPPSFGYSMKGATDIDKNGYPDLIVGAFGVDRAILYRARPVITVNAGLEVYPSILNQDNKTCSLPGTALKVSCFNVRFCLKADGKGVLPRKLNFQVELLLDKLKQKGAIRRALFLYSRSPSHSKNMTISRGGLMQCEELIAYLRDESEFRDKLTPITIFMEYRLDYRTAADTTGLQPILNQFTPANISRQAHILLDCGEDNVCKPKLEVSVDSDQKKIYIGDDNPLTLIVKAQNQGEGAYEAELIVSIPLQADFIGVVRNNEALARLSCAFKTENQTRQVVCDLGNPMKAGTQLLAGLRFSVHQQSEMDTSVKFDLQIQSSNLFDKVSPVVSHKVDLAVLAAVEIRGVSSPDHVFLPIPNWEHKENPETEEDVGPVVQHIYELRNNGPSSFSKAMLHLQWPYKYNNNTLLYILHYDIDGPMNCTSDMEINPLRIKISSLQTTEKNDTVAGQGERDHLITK
# αvβ3 integrin, sequence (P06756 891-1048 partner limits assumed): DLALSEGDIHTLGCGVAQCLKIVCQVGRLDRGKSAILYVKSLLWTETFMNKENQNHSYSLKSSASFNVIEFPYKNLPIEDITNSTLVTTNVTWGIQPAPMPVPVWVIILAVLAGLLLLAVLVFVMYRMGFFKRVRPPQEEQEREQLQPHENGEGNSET
# αvβ3 integrin, sequence (P05106 27-788): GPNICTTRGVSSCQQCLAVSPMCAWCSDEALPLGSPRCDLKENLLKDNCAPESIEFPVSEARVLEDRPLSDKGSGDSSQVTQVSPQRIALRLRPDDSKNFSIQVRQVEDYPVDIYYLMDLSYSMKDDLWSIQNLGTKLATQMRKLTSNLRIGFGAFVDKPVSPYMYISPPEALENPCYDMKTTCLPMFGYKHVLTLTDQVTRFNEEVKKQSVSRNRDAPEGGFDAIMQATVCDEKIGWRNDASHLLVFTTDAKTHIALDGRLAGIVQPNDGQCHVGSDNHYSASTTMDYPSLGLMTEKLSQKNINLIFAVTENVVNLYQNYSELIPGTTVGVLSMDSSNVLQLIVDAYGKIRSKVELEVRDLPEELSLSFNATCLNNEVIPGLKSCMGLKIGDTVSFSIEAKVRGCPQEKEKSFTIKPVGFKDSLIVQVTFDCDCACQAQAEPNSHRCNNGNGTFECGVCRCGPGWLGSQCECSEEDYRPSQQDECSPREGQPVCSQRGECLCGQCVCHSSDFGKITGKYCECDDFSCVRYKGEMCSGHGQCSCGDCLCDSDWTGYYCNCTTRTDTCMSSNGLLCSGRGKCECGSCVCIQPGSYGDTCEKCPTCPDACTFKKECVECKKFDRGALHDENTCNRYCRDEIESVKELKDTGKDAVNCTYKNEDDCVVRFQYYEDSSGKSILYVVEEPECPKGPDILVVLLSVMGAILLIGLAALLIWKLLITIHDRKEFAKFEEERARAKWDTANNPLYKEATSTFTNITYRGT
# Description: The yeast display construct shown in FIG. 1A has the general orientation: Aga2-HA-engineered knottin—c-myc epitope, with the c-myc epitope at the carboxy terminus of the peptide. […] Bound integrin is detected with an anti-integrin antibody, labeled with FITC.
# Below is a typical protocol to label a yeast library samples for sorting by flow cytometry (FACS): • 1. Want 2×10^6 cells, OD600 of […] • 2. Add 1 mL PBS/BSA (phosphate buffered saline containing 1 mg/mL bovine serum albumin) to wash cells • 3. Spin down cells 3 min at 8000 RPM • 4. Remove supernatant using vacuum • 5. Re-suspend in 40 μL PBS/BSA containing proper amount of integrin (100 nM [2.5 μL of stock αvβ3]; no anti-cmyc at this point) • 6. Incubate for 1.5 h at r.t (w/tumbling) • 7. Add 1:250 dilution of (chick anti-cmyc) to labeling solution • 8. […] Incubate 1 h at 4° C. (w/tumbling) • 10. Keep on ice after this step. • 11. Spin down cells 3 min at 8000 RPM, 4° C. and vacuum supernatant • 12. Repeat wash steps 2-4 • 13. Re-suspend in 40 μL PBS/BSA containing proper amount of secondary labels (secondary labeling is simultaneous) • i. Anti-integrin Ab (FITC conj): 1:25 dilution+Anti-chick (Alexa 555): 1:100 dilution • ii. Positive control: Anti-chick (Alexa 555): 1:100 dilution (for FACS compensation) • iii. Positive control: Anti-chick (Alexa 488): 1:100 dilution (for FACS compensation) • 14. Incubate on ice 30 min and keep in dark (lid on ice bucket) • 15. Spin down cells at 3 min at 8000 RPM, 4° C. and vacuum supernatant • 16. Repeat steps 2-4: Add 1 mL PBS/BSA, pellet cells, vacuum supernatant • 17. Leave pelleted cells on ice until use. Fluorescent Cell Sorting
# Commercially available flow cytometers can measure fluorescence emissions at the single-cell level at four or more wavelengths, at a rate of approximately 50,000 cells per second (Ashcroft and Lopez, 2000). Typical flow cytometry data are shown in FIG. 4-7, in which yeast have been labeled with two different color fluorescent probes to measure protein expression levels and bound soluble ligand (in this case integrin receptor). A ‘diagonal’ population of cells results due to variation in protein expression levels on a per cell basis: cells that express more protein will bind more ligand. The equilibrium binding constant (Kd) can be determined by titration of soluble ligand, and the dissociation rate constant (koff) can be measured through competition binding of unlabeled ligand. With yeast, a monodispersity of tethered proteins exists over the cell surface, and soluble ligand are used for binding and testing, such that avidity effects are not observed, unlike other display methods using immobilized ligands. To date, the properties of most proteins expressed on the yeast cell surface mimic what is seen in solution in terms of stability and binding affinity (Bader et al., 2000; Feldhaus et al., 2003; Holler et al., 2000; VanAntwerp and Wittrup, 2000). See, also, Weaver-Feldhaus et al., “Directed evolution for the development of conformation-specific affinity reagents using yeast display,” Protein Engineering Design and Selection Sep. 26, 2005 18(11):527-536.
# Cell sorting was carried out on a FACSVantage (BD Biosciences) multiparameter laser flow cytometer and cell sorter. Before sorting, fluorescent staining was carried out as described above, so that analysis of integrin binding and c-myc expression levels were detected, as described above. […]
# [2] = MicroPET imaging and biodistribution of radiolabeled peptides in U87MG tumor-bearing mice; type: in vivo, mouse; conditions: female, athymic nude (nu/nu), mouse, in vivo, iv, total radioactivity; for tissue uptake at 0.5 h: 0.5 h post injection; for tissue uptake at 2 h: 2 h post injection; for tissue uptake at 4 h: 4 h post injection; for tissue uptake at 25 h: 25 h post injection
# Description: (§1) MicroPET imaging of tumor-bearing mice is performed on a microPET R4 rodent model scanner (Concorde Microsystems Inc, Knoxyille, Tenn.). U87MG tumor bearing mice are injected with PET imaging agent via the tail vein. At various times post injection, the mice are anesthetized with 2% isoflurane, and 10 min static scans are obtained. Images are reconstructed by a two-dimensional ordered expectation maximum subset algorithm as previously described. Regions of interest (ROI) are drawn over the tumor on decay corrected whole body images and ROI derived % injected dose per gram of tissue is determined. Statistical analysis is performed using the student's t-test for unpaired data. A 95% confidence level is used to determine statistical significance.
# (§2) Female athymic mice bearing U87MG tumors were injected with 80-150 μCi of ^64Cu-DOTA-knottin 2.5D or 7-9 μCi of [^18F]-FB-E[knottin 2.5D]. Static images were taken at various timepoints post injection using a microPET R4 rodent model scanner (Concorde Microsystems Inc, Knoxyille, Tenn.). […] Uptake was also observed in the kidney as both probes cleared through the bladder.
# (§3) Mice are sacrificed by exanguinations at various time points postinjection. Blood, tumor and the major organs and tissues are collected, wet-weighed and measured in a γ-counter. The % injected dose per gram is determined for each sample. For each mouse, radioactivity of the tissue samples is calibrated against a known aliquot of the injectate. Values are reported as the mean±standard deviation.
# (§4) The following Table 10 quantifies the ^64Cu-DOTA knottin uptake by direct tissue sampling of the mice up to 24 hours post injection and is reported in % ID (percent injected dose)/gram. Similar results were obtained with [^18F]-FB-E[knottin 2.5D].
# (§5) A U87MG glioblastoma xenograft mouse model was used. U87MG cells were maintained at 37° C. in a humidified atmosphere containing 5% CO2 in Dulbecco's modified eagle medium, 10% heat-inactivated fetal bovine serum, and penicillin-streptomycin (all from Invitrogen). Animal procedures were carried out according to a protocol by Stanford University Administrative Panels on Laboratory Animal Care. Female athymic nude mice (nu/nu), obtained at 4-6 weeks of age (Charles River Laboratories, Inc.), were injected subcutaneously in the right or left shoulder with 2×10^7 U87MG glioblastoma cells suspended in 100 μL of PBS. Mice were used for in vivo imaging studies when their tumors reached approximately 8 to 10 millimeters in diameter.
# (§6) U87MG tumor-bearing mice (n=3 or more for each probe) were injected with ˜100 μCi of ^64Cu-DOTA-conjugated peptides via the tail vein and imaged with a microPET R4 rodent model scanner (Siemens Medical) using 3 or 5 min static scans. […] Images were reconstructed by a two dimensional ordered expectation maximum subset algorithm and calibrated as previously described (Wu, Y, Zhang, X, Xiong, Z, et al. microPET imaging of glioma integrin {alpha}v{beta}3 expression using (64)Cu-labeled tetrameric RGD peptide. J Nucl Med 2005; 46:1707-18). ROIs were drawn over the tumor on decay-corrected whole body images using ASIPro VM software (Siemens Medical). The mean counts per pixel per minute were obtained from the ROI and converted to counts per milliliter per minute with a calibration constant. ROIs were converted to counts/g/min, and % ID/g values were determined assuming a tissue density of 1 g/mL. No attenuation correction was performed.
# [3] = test system: U87MG tumor; test: as above; type: in vivo, mouse; conditions: radiolabeled peptides, U87MG tumor-bearing mice
# Description: as §1, §2, §3, §4, §5, §6
# [4] = direct tissue sampling, read-out: Kidney uptake, mean
# [5] = direct tissue sampling, read-out: Liver uptake, mean
# [6] = direct tissue sampling, read-out: Muscle uptake, mean
# [7] = direct tissue sampling, read-out: Tumor uptake, mean
compound,measurement,setting,value
GCVRLHESCLGQQVPCCDPCATCYCTGRGDSCYCRKLGTAMNPCSRT [RGD-AgRP#2],integrin binding compared in words,[1],"RGD-AgRP #1<#2, <#3"
CVRLHESCLGQQVPCCDPCATCYCTGRGDSPASCYCRKLGTAMNPCSRT [RGD-AgRP#3],integrin binding compared in words,[1],"RGD-AgRP #1<#2, <#3"
"RGD-EETI#2: EETI-II scaffold with native fibronectin RGD loop, RGD at insert positions 3-5, SEQ ID NO: 20 (GCTGRGDSPASSKCKQDSDCLAGCVCGPNGFCG)",integrin binding compared in words,[1],approximately half the affinity of RGD-EETI#3
"CC(C)[C@@H]1NC(=O)[C@@H]2CSSC[C@H](NC(=O)CNC(=O)CN3CCN(CC(=O)O)CCN(CC(=O)O)CCN(CC(=O)O)CC3)C(=O)N3CCC[C@H]3C(=O)N[C@@H](CCC(N)=O)C(=O)NCC(=O)N[C@@H](CCCNC(=N)N)C(=O)NCC(=O)N[C@@H](CC(=O)O)C(=O)N[C@@H](Cc3c[nH]c4ccccc34)C(=O)N[C@@H](C)C(=O)N3CCC[C@H]3C(=O)N[C@@H]([C@@H](C)O)C(=O)N[C@@H](CO)C(=O)N[C@H]3CSSC[C@H](NC1=O)C(=O)NCC(=O)N1CCC[C@H]1C(=O)N[C@@H](CC(N)=O)C(=O)NCC(=O)N[C@@H](Cc1ccccc1)C(=O)N[C@H](C(=O)NCC(=O)O)CSSC[C@H](NC(=O)[C@H](CC(=O)O)NC(=O)[C@H](CO)NC(=O)[C@H](CC(=O)O)NC(=O)[C@H](CCC(N)=O)NC(=O)[C@H](CO)NC3=O)C(=O)N[C@@H](CCCNC(=N)N)C(=O)N[C@@H](C)C(=O)NCC(=O)N2 [^64Cu-DOTA-knottin 2.5D, metal not drawn] ({DOTA}-GCPQGRGDWAPTSCSQDSDCRAGCVCGPNGFCG-OH; disulfide 2-24, 14-26, 20-32; C-terminus assumed)",tissue uptake at 0.5 h,[2]; [4],7.26 %ID/g
same,tissue uptake at 0.5 h,[2]; [5],1.39 %ID/g
same,tissue uptake at 0.5 h,[2]; [6],0.45 %ID/g
same,tissue uptake at 0.5 h,[2]; [7],4.94 %ID/g
same,tissue uptake at 1 h,"[2]; 1 h post injection, direct tissue sampling, read-out: Kidney uptake, mean",4.06 %ID/g
same,tissue uptake at 1 h,"[2]; 1 h post injection, direct tissue sampling, read-out: Liver uptake, mean",1.29 %ID/g
same,tissue uptake at 1 h,"[2]; 1 h post injection, direct tissue sampling, read-out: Muscle uptake, mean",0.28 %ID/g
same,tissue uptake at 1 h,"[2]; 1 h post injection, direct tissue sampling, read-out: Tumor uptake, mean",4.47 %ID/g
same,tissue uptake at 2 h,[2]; [4],3.45 %ID/g
same,tissue uptake at 2 h,[2]; [5],0.98 %ID/g
same,tissue uptake at 2 h,[2]; [6],0.07 %ID/g
same,tissue uptake at 2 h,[2]; [7],2.89 %ID/g
same,tissue uptake at 4 h,[2]; [4],3.26 %ID/g
same,tissue uptake at 4 h,[2]; [5],0.92 %ID/g
same,tissue uptake at 4 h,[2]; [6],0.06 %ID/g
same,tissue uptake at 4 h,[2]; [7],2.24 %ID/g
same,tissue uptake at 25 h,[2]; [4],1.75 %ID/g
same,tissue uptake at 25 h,[2]; [5],0.53 %ID/g
same,tissue uptake at 25 h,[2]; [6],0.03 %ID/g
same,tissue uptake at 25 h,[2]; [7],1.31 %ID/g
same,"PET tumor targeting / imaging signal, in words",[3],clearly targeted the U87MG tumor
"N=C(N)NCCC[C@@H]1NC(=O)[C@H](CCCCN)NC(=O)[C@@H](Cc2ccc(O)cc2)NC(=O)[C@H](CC(=O)O)NC(=O)CNC1=O [c(RGDyK), reference compound]",tissue uptake at 1 h,[2]; Tumor uptake,2.32 ± 0.55 %ID/g
same,tissue uptake at 1 h,[2]; non-specific liver uptake,~4 %ID/g
GCVRLHESCLGQQVPCCDPCATCYCRGDCYCRKLGTAMNPCSRT [RGD-AgRP#1],integrin binding compared in words,[1],"RGD-AgRP #1<#2, <#3"
